Changes are numbered by the printed parent chain. One block for each molecule: values may come before it.
Assays:
[1] = target: microtubules (polymerized with GMPCPP, in taxol); assay: co-sedimentation
[2] = target: T1, GST-CERMAD of wild-type Moesin (residues 483–578) (Drosophila melanogaster, UniProt P46150 483-578); assay: pull-down
T1 sequence (looked up): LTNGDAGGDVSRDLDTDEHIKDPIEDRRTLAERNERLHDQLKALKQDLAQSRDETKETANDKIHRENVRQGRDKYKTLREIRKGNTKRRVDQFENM

[3] = target: microtubules (polymerized with GMPCPP, in taxol); assay: co-sedimentation; remark: listed apart in the source

Kd [1]: 1900 nM
Molecule: Moesin1–559 (Drosophila Moesin with the C-terminal 19 amino acids deleted) (from UniProt P46150 1-559) (domain or fragment)

stoichiometry N [2]: 1
B1: FERM domain of Drosophila Moesin, wild type (domain or fragment, Drosophila melanogaster, UniProt P46150 1-296, looked up)
chain: MSPKALNVRVTTMDAELEFAIQSTTTGKQLFDQVVKTIGLREVWFFGLQYTDSKGDSTWIKLYKKVMNQDVKKENPLQFRFRAKFYPEDVAEELIQDITLRLFYLQVKNAILTDEIYCPPETSVLLASYAVQARHGDHNKTTHTAGFLANDRLLPQRVIDQHKMSKDEWEQSIMTWWQEHRSMLREDAMMEYLKIAQDLEMYGVNYFEIRNKKGTDLWLGVDALGLNIYEQDDRLTPKIGFPWSEIRNISFSEKKFIIKPIDKKAPDFMFFAPRVRINKRILALCMGNHELYMRRR

fold reduction in the apparent Kd against FERM wild type [3]: 3.6 fold
stoichiometry N [2]: 1
B2: FERM-K212,213M of Drosophila Moesin (domain or fragment, Drosophila melanogaster, UniProt P46150 1-296, looked up)
chain: B1 chain with K212M, K213M

Source: PMC3718980 (The Journal of Cell Biology, 2013)
